Experimental data: the supplement of paper PMC10065799, “High-throughput profiling of sequence recognition by tyrosine kinases and SH2 domains using bacterial peptide display” (eLife, 2023)

Columns and labels:
Jak2 = Jak2 (UniProt O60674); assay: phosphorylation enrichment, bacterial display (enrichment ratio); higher = better substrate or ligand; peptides without Tyr show the background
AncSZ = assay: as above
c-Abl (mouse) = assay: as above
Fyn = Fyn (UniProt P06241); assay: as above
Fer (mouse) = assay: as above
EPHB2 = EPHB2 (UniProt P29323); assay: as above
Chain of EPHB2 (P29323 whole entry, looked up): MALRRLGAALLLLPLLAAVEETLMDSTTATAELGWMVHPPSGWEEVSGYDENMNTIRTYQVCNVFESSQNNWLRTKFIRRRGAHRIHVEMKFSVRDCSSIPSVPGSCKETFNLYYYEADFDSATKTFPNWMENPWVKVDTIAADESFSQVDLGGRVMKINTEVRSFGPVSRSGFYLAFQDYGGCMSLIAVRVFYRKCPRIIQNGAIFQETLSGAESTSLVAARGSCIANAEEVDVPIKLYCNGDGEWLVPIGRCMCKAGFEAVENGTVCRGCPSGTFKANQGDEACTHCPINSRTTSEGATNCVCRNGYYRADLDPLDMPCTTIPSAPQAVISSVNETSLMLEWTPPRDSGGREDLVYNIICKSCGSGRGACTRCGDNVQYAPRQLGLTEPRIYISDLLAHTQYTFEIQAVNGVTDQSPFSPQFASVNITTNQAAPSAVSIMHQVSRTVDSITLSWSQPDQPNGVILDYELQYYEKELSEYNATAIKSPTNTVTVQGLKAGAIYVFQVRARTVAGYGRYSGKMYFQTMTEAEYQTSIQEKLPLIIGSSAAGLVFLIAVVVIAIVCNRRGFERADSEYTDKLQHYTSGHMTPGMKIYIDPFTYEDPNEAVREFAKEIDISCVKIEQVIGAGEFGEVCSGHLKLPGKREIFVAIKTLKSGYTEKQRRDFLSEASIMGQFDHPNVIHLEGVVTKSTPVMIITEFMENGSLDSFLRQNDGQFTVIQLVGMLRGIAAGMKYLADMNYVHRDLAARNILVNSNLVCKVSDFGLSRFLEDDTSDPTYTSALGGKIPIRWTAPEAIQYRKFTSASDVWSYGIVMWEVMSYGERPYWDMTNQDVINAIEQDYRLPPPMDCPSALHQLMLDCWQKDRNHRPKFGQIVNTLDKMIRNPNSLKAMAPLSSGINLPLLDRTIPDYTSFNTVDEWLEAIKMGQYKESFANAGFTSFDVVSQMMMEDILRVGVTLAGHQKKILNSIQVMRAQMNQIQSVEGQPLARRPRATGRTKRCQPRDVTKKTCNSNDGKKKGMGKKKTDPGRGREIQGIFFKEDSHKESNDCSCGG

Hck = Hck (UniProt P08631); assay: as above
Chain of Hck (P08631 whole entry, looked up): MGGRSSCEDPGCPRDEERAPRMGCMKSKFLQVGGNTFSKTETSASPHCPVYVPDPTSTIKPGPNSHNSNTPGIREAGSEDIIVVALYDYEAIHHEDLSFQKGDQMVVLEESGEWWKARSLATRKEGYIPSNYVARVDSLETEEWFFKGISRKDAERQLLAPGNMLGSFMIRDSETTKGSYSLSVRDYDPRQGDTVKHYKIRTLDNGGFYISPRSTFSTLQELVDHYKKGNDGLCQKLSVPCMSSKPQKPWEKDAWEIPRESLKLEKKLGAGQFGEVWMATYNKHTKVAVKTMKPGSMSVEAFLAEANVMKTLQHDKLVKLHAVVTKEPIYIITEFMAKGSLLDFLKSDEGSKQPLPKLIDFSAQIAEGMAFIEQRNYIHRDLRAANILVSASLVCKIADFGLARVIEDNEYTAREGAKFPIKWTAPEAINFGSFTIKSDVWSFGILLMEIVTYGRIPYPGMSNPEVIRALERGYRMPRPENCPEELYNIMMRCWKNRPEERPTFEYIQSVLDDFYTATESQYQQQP

c-Src = assay: as above
FGFR3 = FGFR3 (UniProt P22607); assay: as above
EPHB1 = EPHB1 (UniProt P54762); assay: as above
FGFR1 = FGFR1 (UniProt P11362); assay: as above
Fes = Fes (UniProt P07332); assay: as above
Chain of Fes (P07332 whole entry, looked up): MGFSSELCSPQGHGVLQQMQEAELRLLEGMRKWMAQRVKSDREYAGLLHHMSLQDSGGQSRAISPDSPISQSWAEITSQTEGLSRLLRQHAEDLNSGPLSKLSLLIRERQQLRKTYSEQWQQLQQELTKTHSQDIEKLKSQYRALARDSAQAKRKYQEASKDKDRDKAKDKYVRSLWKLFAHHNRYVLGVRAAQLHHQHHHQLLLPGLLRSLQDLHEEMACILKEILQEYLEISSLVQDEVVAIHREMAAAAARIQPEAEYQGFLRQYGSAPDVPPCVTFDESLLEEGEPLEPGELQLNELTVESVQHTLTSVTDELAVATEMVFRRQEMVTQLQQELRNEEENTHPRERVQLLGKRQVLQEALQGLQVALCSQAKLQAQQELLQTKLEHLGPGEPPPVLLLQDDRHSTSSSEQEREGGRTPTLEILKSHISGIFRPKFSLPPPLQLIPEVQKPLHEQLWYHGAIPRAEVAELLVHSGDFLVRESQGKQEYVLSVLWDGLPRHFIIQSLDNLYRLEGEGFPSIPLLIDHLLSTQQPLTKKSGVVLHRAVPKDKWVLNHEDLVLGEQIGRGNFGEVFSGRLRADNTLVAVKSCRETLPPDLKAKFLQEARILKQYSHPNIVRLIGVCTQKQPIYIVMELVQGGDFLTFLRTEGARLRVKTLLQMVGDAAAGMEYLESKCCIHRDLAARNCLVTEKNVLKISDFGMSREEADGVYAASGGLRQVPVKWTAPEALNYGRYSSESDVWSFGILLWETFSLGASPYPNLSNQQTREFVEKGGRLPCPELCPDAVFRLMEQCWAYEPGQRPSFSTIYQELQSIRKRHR

MERTK = MERTK (UniProt Q12866); assay: as above
Chain of MERTK (Q12866 whole entry, looked up): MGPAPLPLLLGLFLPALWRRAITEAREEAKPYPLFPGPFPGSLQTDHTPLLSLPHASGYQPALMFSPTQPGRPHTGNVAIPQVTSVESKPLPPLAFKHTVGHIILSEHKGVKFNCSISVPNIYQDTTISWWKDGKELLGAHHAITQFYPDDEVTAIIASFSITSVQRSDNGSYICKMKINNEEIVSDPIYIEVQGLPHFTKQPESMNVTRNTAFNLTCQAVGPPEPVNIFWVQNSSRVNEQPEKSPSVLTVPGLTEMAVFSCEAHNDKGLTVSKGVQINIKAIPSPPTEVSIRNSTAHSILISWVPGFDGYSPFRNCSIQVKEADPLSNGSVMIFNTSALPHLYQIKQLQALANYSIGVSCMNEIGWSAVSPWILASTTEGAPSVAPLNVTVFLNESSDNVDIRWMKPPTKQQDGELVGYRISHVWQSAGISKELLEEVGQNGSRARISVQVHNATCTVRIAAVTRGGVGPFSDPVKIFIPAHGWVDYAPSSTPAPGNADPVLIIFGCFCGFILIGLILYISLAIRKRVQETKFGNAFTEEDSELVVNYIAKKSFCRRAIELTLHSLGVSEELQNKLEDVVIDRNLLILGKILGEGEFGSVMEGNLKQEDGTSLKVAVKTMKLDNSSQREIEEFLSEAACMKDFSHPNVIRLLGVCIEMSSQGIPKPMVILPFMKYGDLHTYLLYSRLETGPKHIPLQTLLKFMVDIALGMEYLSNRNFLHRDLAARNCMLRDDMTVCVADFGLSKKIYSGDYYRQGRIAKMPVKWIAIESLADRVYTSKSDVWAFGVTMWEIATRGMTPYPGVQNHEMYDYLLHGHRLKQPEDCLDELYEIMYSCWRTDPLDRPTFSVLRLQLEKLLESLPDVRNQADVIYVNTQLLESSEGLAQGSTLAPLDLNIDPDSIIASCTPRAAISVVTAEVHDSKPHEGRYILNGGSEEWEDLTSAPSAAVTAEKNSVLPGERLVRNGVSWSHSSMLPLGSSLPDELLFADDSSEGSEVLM

c-Src SH2 = assay: SH2 binding enrichment of the phosphorylated peptide, bacterial display (enrichment ratio); higher = better substrate or ligand; peptides without Tyr show the background
SHP2-C SH2 = assay: as above
Grb2 SH2 = Grb2 SH2 (UniProt P62993); assay: as above
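For SH2 binding enrichment of the phosphorylated peptide, bacterial display in this document: peptide library displayed on the E. coli surface as eCPX fusions, selected cells deep-sequenced, score is each peptide's frequency after selection divided by its frequency in the input.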
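For phosphorylation enrichment, bacterial display in this document: 11-residue human phosphosite peptides and single-mutation variants displayed on the E. coli surface, counted by deep sequencing, each peptide's frequency after selection divided by its frequency in the unselected input library; frequency after pTyr selection over input frequency; kinase dosed for 20-30% of maximal phosphorylation in three min.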

Chain of Jak2 (O60674 whole entry, looked up): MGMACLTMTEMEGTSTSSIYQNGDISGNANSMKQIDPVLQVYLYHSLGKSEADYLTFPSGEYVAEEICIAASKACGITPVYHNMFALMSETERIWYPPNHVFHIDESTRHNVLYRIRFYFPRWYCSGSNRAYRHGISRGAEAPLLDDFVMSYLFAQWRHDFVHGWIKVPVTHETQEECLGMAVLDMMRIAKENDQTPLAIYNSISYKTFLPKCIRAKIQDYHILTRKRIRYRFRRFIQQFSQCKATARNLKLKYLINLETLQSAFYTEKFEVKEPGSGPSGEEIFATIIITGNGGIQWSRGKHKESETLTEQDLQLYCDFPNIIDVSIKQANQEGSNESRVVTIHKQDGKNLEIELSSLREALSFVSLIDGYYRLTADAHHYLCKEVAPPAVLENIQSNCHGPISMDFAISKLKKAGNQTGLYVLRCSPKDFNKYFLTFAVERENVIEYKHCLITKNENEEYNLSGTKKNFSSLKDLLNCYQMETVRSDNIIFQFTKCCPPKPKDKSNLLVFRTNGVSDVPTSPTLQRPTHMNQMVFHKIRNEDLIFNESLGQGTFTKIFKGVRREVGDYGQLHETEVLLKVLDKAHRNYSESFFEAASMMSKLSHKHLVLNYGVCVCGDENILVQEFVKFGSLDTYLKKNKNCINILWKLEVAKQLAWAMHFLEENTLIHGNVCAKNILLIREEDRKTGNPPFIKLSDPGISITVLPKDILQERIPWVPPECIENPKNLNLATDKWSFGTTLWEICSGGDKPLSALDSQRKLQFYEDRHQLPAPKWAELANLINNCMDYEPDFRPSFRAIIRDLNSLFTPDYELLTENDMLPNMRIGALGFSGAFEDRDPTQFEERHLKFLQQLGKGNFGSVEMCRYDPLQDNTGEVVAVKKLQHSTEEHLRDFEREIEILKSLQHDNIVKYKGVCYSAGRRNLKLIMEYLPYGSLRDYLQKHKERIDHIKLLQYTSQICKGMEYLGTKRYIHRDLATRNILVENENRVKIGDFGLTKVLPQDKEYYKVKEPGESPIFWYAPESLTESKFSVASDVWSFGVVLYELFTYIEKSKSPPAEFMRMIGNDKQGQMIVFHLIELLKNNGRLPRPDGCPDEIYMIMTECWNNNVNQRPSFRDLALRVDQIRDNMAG
Chain of Fyn (P06241 whole entry, looked up): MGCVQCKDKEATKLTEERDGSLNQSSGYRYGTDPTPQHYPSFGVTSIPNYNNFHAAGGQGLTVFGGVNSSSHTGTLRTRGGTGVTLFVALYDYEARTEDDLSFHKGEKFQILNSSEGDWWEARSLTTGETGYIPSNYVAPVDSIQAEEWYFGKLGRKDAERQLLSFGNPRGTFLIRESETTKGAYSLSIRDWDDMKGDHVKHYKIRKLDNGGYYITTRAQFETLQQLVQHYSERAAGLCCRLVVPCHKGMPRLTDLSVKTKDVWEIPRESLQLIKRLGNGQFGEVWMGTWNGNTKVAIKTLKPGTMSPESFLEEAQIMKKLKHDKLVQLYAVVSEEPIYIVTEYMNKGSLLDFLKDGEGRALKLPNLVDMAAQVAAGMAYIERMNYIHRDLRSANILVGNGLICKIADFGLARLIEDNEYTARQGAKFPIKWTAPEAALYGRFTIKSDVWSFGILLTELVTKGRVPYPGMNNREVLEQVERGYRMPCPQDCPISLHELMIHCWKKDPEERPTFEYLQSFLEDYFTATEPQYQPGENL

Sequence | phosphorylation enrichment (Jak2) | phosphorylation enrichment (AncSZ) | phosphorylation enrichment (c-Abl (mouse)) | phosphorylation enrichment (Fyn) | phosphorylation enrichment (Fer (mouse)) | phosphorylation enrichment (EPHB2) | phosphorylation enrichment (Hck) | phosphorylation enrichment (c-Src) | phosphorylation enrichment (FGFR3) | phosphorylation enrichment (EPHB1) | phosphorylation enrichment (FGFR1) | phosphorylation enrichment (Fes) | phosphorylation enrichment (MERTK) | SH2 binding enrichment (c-Src SH2) | SH2 binding enrichment (SHP2-C SH2) | SH2 binding enrichment (Grb2 SH2)
PAQAAYQKVVA [HBB_Y131_V127A] | 0.59 | 0.647 | 0.589 | 0.879 | 0.477 | 0.67 | 0.542 | 0.375 | 0.62 | 0.562 | 0.544 | 0.771 | 0.349 | 0.87 | 0.884 | 0.9
PDSVDYRKKGY [CTSK_Y121] | 1.01 | 1.07 | 0.976 | 0.749 | 0.657 | 1.67 | 0.78 | 0.905 | 0.661 | 0.599 | 1.06 | 1.08 | 0.823 | 0.686 | 0.708 | 1.14
PEADKYRLTYA [FGG_Y300] | 1.13 | 1.61 | 0.825 | 0.626 | 0.828 | 1.09 | 1.62 | 0.604 | 1.14 | 0.832 | 0.888 | 1.51 | 0.777 | 0.392 | 0.736 | 0.806
PEPTGYSAELS [EZR_Y499_A494P] | 0.871 | 1.02 | 0.962 | 0.57 | 0.456 | 0.851 | 0.419 | 0.461 | 0.762 | 0.573 | 0.502 | 0.943 | 0.567 | 0.461 | 0.63 | 0.87
PESILYRKFTT [NTRK1_Y701] | 1.14 | 1.14 | 0.732 | 0.377 | 0.818 | 0.52 | 0.538 | 0.632 | 0.73 | 0.668 | 0.627 | 0.9 | 0.542 | 0.412 | 0.81 | 0.724
PFWKLYESVKK [MKI67_Y241] | 1.58 | 1 | 1.07 | 1.03 | 1.8 | 2.31 | 4.34 | 1.58 | 0.703 | 6.75 | 0.52 | 1.39 | 0.966 | 0.766 | 0.625 | 1.16
PGAPAYRVLME [MYO5A_Y1245] | 1.06 | 0.592 | 1.52 | 0.542 | 0.671 | 0.585 | 0.564 | 0.423 | 0.726 | 0.397 | 0.379 | 1.29 | 0.566 | 0.422 | 0.71 | 0.728
PGLKGYPGLSG [COL4A2_Y306_R304K] | 0.422 | 0.476 | 0.639 | 0.213 | 0.218 | 0.307 | 0.434 | 0.347 | 0.318 | 0.474 | 0.369 | 0.468 | 0.367 | 0.431 | 0.504 | 0.652
PGPPGYCDSSQ [COL12A1_Y3043] | 1.08 | 1.03 | 0.707 | 0.643 | 0.77 | 0.492 | 0.639 | 0.594 | 0.941 | 0.914 | 0.461 | 1.41 | 0.505 | 0.603 | 0.692 | 0.979
PGQAAYQKVVA [HBB_Y131_V127G] | 0.626 | 0.68 | 0.491 | 0.478 | 0.49 | 0.525 | 0.361 | 0.579 | 0.558 | 0.517 | 0.373 | 0.831 | 0.514 | 0.922 | 0.615 | 0.984
PIAPVYAPSMV [ACAT1_Y331_A333P] | 0.738 | 1.35 | 49.8 | 9.96 | 16.1 | 2.72 | 21 | 8.41 | 1.22 | 2.4 | 0.779 | 1.67 | 4.7 | 0.621 | 0.718 | 0.785
PIFEGYGLPHA [ACTA1_Y171_A172G_YF] | 0.836 | 0.806 | 0.872 | 0.701 | 0.744 | 0.5 | 0.642 | 0.547 | 0.451 | 0.469 | 0.628 | 0.866 | 0.641 | 0.516 | 0.581 | 0.612
PIYLYYLMDLS [ITGB2_Y131_D128Y] | 8.11 | 4.09 | 3.32 | 5.41 | 4.54 | 6.17 | 4.44 | 6.42 | 13.9 | 7.52 | 13.6 | 3.42 | 11.1 | 0.751 | 0.842 | 0.902
PKGTGYIKTEL [STAT1_Y701] | 0.986 | 0.973 | 0.559 | 0.512 | 0.801 | 0.557 | 0.748 | 0.635 | 1.01 | 0.411 | 0.792 | 0.835 | 0.694 | 0.446 | 0.893 | 0.93
PLGPLYASSNT [INSR_Y992_P997T] | 0.723 | 1.87 | 1.51 | 0.908 | 1.1 | 0.783 | 3.67 | 1.22 | 0.73 | 0.896 | 0.633 | 0.949 | 1.12 | 0.526 | 1.1 | 0.914
PLGVLYKVKVY [PTS_Y128_V124L] | 1.19 | 1.61 | 0.876 | 0.339 | 0.511 | 0.626 | 0.465 | 0.36 | 0.82 | 0.674 | 0.415 | 1.4 | 0.318 | 0.484 | 0.817 | 0.828
PLLTDYSPQLQ [OTC_Y345_S340P] | 0.964 | 1.54 | 1.02 | 0.698 | 0.879 | 1.17 | 0.951 | 0.616 | 1.19 | 1.11 | 1.19 | 1.9 | 0.965 | 0.445 | 0.656 | 1
PPKFFDTRKLL [CYBB_Y41_Y41D] | 0.663 | 0.992 | 0.759 | 0.518 | 0.941 | 0.556 | 0.51 | 0.614 | 0.38 | 0.383 | 0.365 | 0.639 | 0.796 | 0.92 | 1.17 | 1.54
PPPPAYDDVAQ [TNK2_Y635] | 1.03 | 1.16 | 0.806 | 0.45 | 0.547 | 0.669 | 0.439 | 0.622 | 0.591 | 0.579 | 0.467 | 0.993 | 0.676 | 4.13 | 0.706 | 0.757
PRIHSYRGHLW [VHL_Y112_R107P] | 0.628 | 1.01 | 1.09 | 0.611 | 0.722 | 0.451 | 0.713 | 0.748 | 0.579 | 1.56 | 0.771 | 1.08 | 0.655 | 1.89 | 1.86 | 1.55
PRQRRYVYYYS [PTEN_Y174_S170R] | 0.979 | 1.05 | 0.769 | 0.882 | 0.904 | 1.02 | 0.911 | 0.728 | 0.929 | 0.656 | 0.753 | 0.683 | 0.877 | 0.413 | 0.839 | 0.909
PSAELYSYALP [PDGFRB_Y716_N718Y] | 0.947 | 3.71 | 1.55 | 6.1 | 25.8 | 21.2 | 8.81 | 5.38 | 10 | 18 | 10.6 | 1.92 | 16.8 | 3.46 | 0.641 | 0.966
PSDPSYEDMRE [BMPR1A_Y467] | 1.45 | 2.49 | 0.831 | 0.848 | 1.26 | 0.495 | 1.28 | 0.534 | 1.27 | 0.901 | 0.758 | 1.59 | 0.504 | 1.12 | 0.324 | 0.832
PSPMPYACCQM [FOXL2_Y215_S217C] | 0.516 | 0.703 | 0.49 | 0.71 | 0.831 | 0.437 | 0.427 | 1.02 | 0.812 | 0.663 | 0.494 | 1.3 | 0.615 | 1.32 | 0.426 | 0.888
PSSNLYYRWLT [CNGA3_Y168] | 7.82 | 1.89 | 7.69 | 3.84 | 6.19 | 4.17 | 8.15 | 4.28 | 9.96 | 3.17 | 13.5 | 1.4 | 12.4 | 0.816 | 1.59 | 1.32
PSTYRYERGSR [INPPL1_Y663_P659S] | 0.475 | 0.718 | 0.446 | 0.721 | 0.474 | 0.511 | 0.661 | 0.546 | 0.588 | 0.663 | 0.641 | 0.59 | 0.561 | 0.495 | 0.492 | 0.814
PVFEVYPLLNC [GATA1_Y78_Q76E] | 1.48 | 1.64 | 1.03 | 0.418 | 0.533 | 0.756 | 0.597 | 0.758 | 1.9 | 0.742 | 2.54 | 1.86 | 0.559 | 0.551 | 0.73 | 0.945
PVGVLYEVKVY [PTS_Y128_K129E] | 1.78 | 1.64 | 2.37 | 0.775 | 0.56 | 0.552 | 0.728 | 0.585 | 1.02 | 0.945 | 0.783 | 1.67 | 0.55 | 0.537 | 0.725 | 0.966
PVKDPYVMFPQ [PLEKHG2_Y489] | 0.964 | 0.982 | 0.636 | 1.62 | 0.49 | 0.562 | 0.685 | 2.43 | 1.54 | 0.603 | 2.05 | 1.03 | 0.47 | 2.35 | 0.453 | 0.569
